Measured values: paper PMC5453099, “Vascular Endothelial Growth Factor (VEGF) Detection Using an Aptamer and PNA-Based Bound/Free Separation System”

Target: VEGF (vascular endothelial growth factor) (UniProt P15692-4 27-191)
Test: bound/free separation: fluorescence of supernatant after capture of free aptamer on PNA beads; 10 nM aptamer, CaPNA4 beads; signal rises with 5-50 nM VEGF; detection limit 25 nM (not a Kd); TBS: 10 mM Tris-HCl pH 7.0, 100 mM NaCl; room temperature; protein and aptamer 10 min, then CaPNA beads 5 min (beads blocked with 4% skimmed milk and 4 mM biotin)
Details: protein: commercial; chain copies: 2; label: 5'-fluorescein; predicted three-way junction with stem-loops

Chain of VEGF (vascular endothelial growth factor) (P15692 other isoform, or with tags, fused parts or gaps): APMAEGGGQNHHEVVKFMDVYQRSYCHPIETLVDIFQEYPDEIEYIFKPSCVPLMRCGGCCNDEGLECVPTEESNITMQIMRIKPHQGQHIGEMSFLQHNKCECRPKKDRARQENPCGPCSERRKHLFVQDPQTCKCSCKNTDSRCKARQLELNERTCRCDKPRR

B1: VEGF aptamer (58-mer) (structured_DNA)
DNA: CTGGCCAGGTACCAAAAGATGATCTTGGGCCCGTCCGAATGGTGGGTGTTCTGGCCAG
B1: binds.
